Measured values taken from a protein production outcome set (Wang et al. 2014).

Assay: label from the status in PepcDB records

Sequence | protein production
NAEKVALAKKVADESAVLLENRNDILPLDLNKYKSVAVVGPNSNQAVLGDYAWTMGDTKEAVSLLQGLQESAGDKIMIRHAEGCDWWSQDKSHIAEAVEVVRNSDIAVVAVGTRSTYLGRSPKYSTAGEGFDLSSLELPGVQEELLKEIKKTGKPMIVVLIAGKPLAMPWVKENADALLVQWYAGEQQGCTLADILLGKVNPSGKLNVSFPRSTGNTPCFYNHFVTDREEPFDQPGTPEEPKGHYIFDKPEPLWNFGHGKSYTTFDYVD | failed
MRWFILCLRKYVDFKGRARRKEFWLFTLFYLIALVIPPAVIIPIAVIYRHTIDIALCIRICVVVEILVIFSLLLPAYAVTVRRLHDTNRSGLWVIASIVPRVLAEGLGVIFGQKWLIQIAEGEFPTLLLINMFLLLIDLCVSILILVMMCERGTEGENRFGPDPLSDGREVLMEPEPGK | failed
MNITVNDRECSAQVGDRLLDIARANHSHIGYFCGGNAICQTCYVRVLEGAELLSPMSDAEKAMLSDKLIKEGTRMACQTLIEKPGKITVLSEVEAAKRLTLENPLEHHHHHH | not failed
MGVFDKFLDIMKLNDDEYDDDDFYDDDFEDDDFDEKPHRSIFGNKKSRSDDFDDFDMDEDKHLAPSSGNKVTPMRQPAARRGVNMEVCVVKPTSVDDSREITETLLAGRTVILNLEGMDLEIAQRIIDFISGATFAISGNLQKISNYIFLVTPTNVDILEHHHHHH | not failed
MSEEIREVKVLEKPWVEKYRPQRLDDIVGQEHIVKRLKHYVKTGSMPHLLFAGPPGVGKCLTGDTKVIANGQLFELGELVEKLSGGRFGPTPVKGLKVLGIDEDGKLREFEVQYVYKDRTDRLIKIKTQLGRELKVTPYHPLLVNRENGEIKWIKAEELKPGDKLAIPSFLPLITGENPLAEWLGYFMGSGYAYPSNSVITFTNEDPLIRQRFMELTEKLFPDAKIRERIHADGTPEVYVVSRKAWSLVNSISLTLIPREGWKGIRSFLRAYSDCNGRIESDAIVLSTDNNDMAQQIAYALASFGIIAKMDGEDVIISGSDNIERFLNEIGFSTQSKLKEAQKLIRKTNVRSDGLKINYELISYVKDRLRLNVNDKRNLSYRNAKELSWELMKEIYYRLEELERLKKVLSEPILIDWNEVAKKSDEVIEKAKIRAEKLLEYIKGERKPSFKEYIEIAKVLGINVERTIEAMKIFAKRYSSYAEIGRKLGTWNFNVKTILESDTVDNVEILEKIRKIELELIEEILSDGKLKEGIAYLIFLFQNELYWDEITEVKELRGDFIIYDLHVPGYHNFIAGNMPTVVHNTTAALALARELFGENWRHNFLELNASDERGINVIREKVKEFARTKPIGGASFKIIFLDEADALTQDAQQALRRTMEMFSSNVRFILSCNYSSKIIEPIQSRCAIFRFRPLRDEDIAKRLRYIAENEGLELTEEGLQAILYIAEGDMRRAINILQAAAALDKKITDENVFMVASRARPEDIREMMLLALKGNFLKAREKLREILLKQGLSGEDVLVQMHKEVFNLPIEEPKKVLLADKIGEYNFRLVEGANEIIQLEALLAQFTLIGKK | failed
QSYSGGIRLDTLFIDEGFGSLDPESLDLAIQTLVDLQQTGRMIGVISHVSELKEQMALRIDVEPSRFGSTVSVKSQMLISK | failed
MSATGIKRSNLNTRPVQRDASAKQTAIKGPYGKSPGCTTSCGLRLPRKTEVTAAKLIKHLGCKFAKGLRLVVMRKKKRSPPSKVSSFSGRSQPPIIPINNDSHRSEAIEDCIQFINSSSSFTRSNSTS | failed
MAAAPWYIRQRDTDLLGKFKFIQNQEDGRLREATNGTVNSRWSLGVSIEPRNDARNRYVNIMPYERNRVHLKTLSGNDYINASYVKVNVPGQSIEPGYYIATQGPTRKTWDQFWQMCYHNCPLDNIVIVMVTPLVEYNREKCYQYWPRGGVDDTVRIASKWESPGGANDMTQFPSDLKIEFVNVHKVKDYYTVTDIKLTPTDPLVGPVKTVHHFYFDLWKDMNKPEEVVPIMELCAHSHSLNSRGNPIIVHCSAGVGRTGTFIALDHLMHDTLDFKNITERSRHSDRATEEYTRDLIEQIVLQLRSQRMKMVQTKDQFLFIYHAAKYLNSLSVNQ | failed
MGKDLAECYLGLGSTFRTLGEYRKAEAVLANGVKQFPNHQALRVFYAMVLYNLGRYEQGVELLLKIIAETSDDETIQSYKQAILFYADKLLEHHHHHH | failed
MANIKIRQETPTAFYIKVHDTDNVAIIVNDNGLKAGTRFPDGLELIEHIPQGHKVALLDIPANGEIIRYGEVIGYAVRAIPRGSWIDESMVVLPEA | not failed
MSTSFTMIGGEGPNSYREHSKYQGALVIAAKEKINEAISTKLDIDFTSNLVNIADFGCSSGPNTFTAVQTLIDAVENKYKKESNIEGIEFQVFFNDSSNNDFNTLFKTLPPARLYFASGVPGSFFGRVLPKNSLHVGVSSYSLHFVSKVPKEIKDRDSLVWNKDIHCSGSSKEVVKLYLGQYKIDVGSFLTARAQELVSGGLLLLLGSCRPTGVQMFETVEGMMIDFIGSSLNEIANQGLIDQQKLDTFKLPIYAPNVDELKQIIEDNKCFTIEAFEKISHAKGEYPLDPEYLTSAFKVTVGGSVASLFGQDGMEKTYELVKEKTQEMLPQIAKAKPGMQYLIVLRRN | failed
MLLPRMLEEVVLAVPARDYDRVVAGLAVEGIFHVDSPPQGVKGEVDRSYRALLTQASERSSRIRQYFDLAGVEPYRVSGVEIEVGGWGESWKRYLEKYSGVEKFYSGLLEEYSEAEARLKELLDIEARIAPVAHLDVDIARLYRSGAFDFAVYYGSYSEGLESRVGEIVSRVGGLAAVEASGGSVVVAVAVPKGALSKISPEILRLNLSIYTPPEGVPGSPREAMEYIRGEKARLGRRLVSIQEMASERLGELAEFYTVVTAFENIFKFLVSTLRRGETRIVRGFVDVRDSGRLRSIVDRMTRGSYVLLSLGVRRGGEAPIPSKVDLPQFLKPFSRVVELYGYPEPNEIVPTVFLAITLPLTFALMFPDAGQGLLVLLFSLFYLRRVSRDWAYVIAVMGGASVVSGLLAGEVFGPLVSKMLGLPELWYRLGLETPPYAMPTYAIDHGEEELVPVLVYRALNVSLFMGAFMLSFGTFLGVVNGVIKRDWVGLVESRLPRFLLFASITGPFLVYMDAGEAGSVLRQALLELGGDSIAAKLVLAGSVLGLAWMLLAGPIIYMLEGHSPLAGLANSFLEAYESLLMLVGNIPSFLRIMALALAHSSLMFVIYYLTVMIMQGGILADVVGALLYVGGNLAVAAMEGLLAFAHASRLHFYEWFSKFYSGTGVPYTPIKVEGVRIKIAGQTF | failed
MTETDKKQEQENHAECEDKPKPCCVCKPEKEERDTCILFNGQDSEKCKEFIEKYKECMKGYGFEVPSAN | not failed
CTNYSLLKLAGDVESNPGPTIFSKASADLNALSTSLGELTGMLKDLKAKAETYSPFYKMAKMLFKLATLAVAAMRTKDPVVVVMLIADFGLEVFDTGFFFSYFQEELQPYMKTIPGKISDLVTDAATAAAQIPKGVYSFVSSFFETPEGAVEKQ | failed
MEKSLETVPGLDLSGEDIEMYYQYVRFVDRFLRFNRNYQIEYFKLSYPGDGSSEREVDLLKRWIDTVIQLKVKDLDFFDYSWEWGFDNFQLPSTIYICESLVSLKLSTVTLPSVKSVSLPFLRVLKLGAVKFADHLDLETLISGCTALETLAIRFFDRVQVLQVSSQSLLSFTHVAPKLVFTHAVRKPLAEKDLSIVIDAPRLEYLKLSDHQTSSFIIKNPGSLVAVDIDINLSSGFDSRNMIRDFLVGISSVKNMTISSIILKFYDYRFKMLPTFLEICPNLKSLILKSTEELGIKESSMFSGPQDFLPSLEYVEMKMPLKKGLLLEIRMLVGYFLEKATILKKLTLCLDDYRKRKESLIPRILAIPRISTSCEVVVL | failed
MKTPTFGKREETLTYQTRYAAYIIVSKPENNTMVLVQAPNGAYFLPGGEIEGTETKEEAIHREVLEELGISVEIGCYLGEADEYFYSNHRQTAYYNPGYFYVANTWRQLSEPLERTNTLHWVAPEEAVRLLKRGSHRWAVEKWLAAAS | not failed
VGFAPELYCGLENCYDVLEVNREEFDKQKLAKAYRALARKHHPDRVKNKEEKLLAEERFRVIATAYETLKDDEAKTNYDYYLDHPDQRFYNYYQY | not failed
MGESYSSGYSLVVRVIANDRSGLLRDITTILANEKVNVLGVASRSDTKQQLATIDMDIEIYNLQVLGRVLAKLNQLPDVIDARRQQGALEHHHHHH | not failed
MVTLSDPNRRSRRIKRITIVGCLGNLLLTIGKFFSGFVGHSGAMIADAVHSLSDLLTDFVVFIFISISGKPSDKNHDYGHGKFETLATAIIAVTLIIIGAMLCSDGLTKVYRYLRFGDELARPGLIALLMAFVSIVAKEWLFRITRCVGKEENSRSVIANAWHHRSDAYTSVATFIGIGCAFLLGRGWMILEPLSAAVVSVFIIKVGFQMAVPAFRDLLEQSLPDDIEEEIEKIICSESMVKGVRRIRTRNIGNYYAVEADILMDGGLSVALSHAATQRVEKLLRGRYGQPTHIVIHVEPFS | failed
MSEKFDCHYCRDPLQGKKYVQKDGRHCCLKCFDKFCANTCVDCRKPISADAKEVHYKNRYWHDNCFRCAKCLHPLASETFVSKDGKILCNKCATREDSPRCKGCFKAIVAGDQNVEYKGTVWHKDCFTCSNCKQVIGTGSFFPKGEDFYCVTCHETKFAKHCVKCNKAITSGGITYQDQPWHAECFVCVTCSKKLAGQRFTAVEDQYYCVDCYKNFVAKKCAGCKNPITGKRTVSRVSHPVSKARKSPVCHGKRLPLTLFPSANLRGRHPGGERTCPSWVVVLYRKNRSLAAPRGPGLVKAPVWWPMKDNPGTTTASTAKNAP | failed
MNIAVQTLRALAETIVTPSYLLTIIVIMIMFYMKNRRISFMQRMIIGQNIESPFELTLSQITLSIIAGALGSVILSYLGVVFKDNSAIVLLFLISVILMFAGSRFLCFSYSGSILGIISIVIQFLSVNKIADVSSIKFLEIDVVMIMSLVGVLHIVEGIIVMIDGKSGAIPVFTNREDKIIGGFAFKRYWVLPITLLFLLNNADLNGTVNVATPDSWPIIRTAFTVIGKSAVISFMMFYGIIGYKSVTFTKSKRKKTFMSGMAIALYGAVLLGLSQVLKHNLEQQIILCLLAPLLHETMLRLEAYSEVKGKPKFVSGEDGVMVLDVAPNSQAYEMGIKSGDLLLEINDTKIFSEEDITRSIQNMSKYMWFKIKDVQGKLNEISYDKFDRNKKLGAIFVPKGMPKESKIVKFEHKSFDDILDNVNKEDENKKDQK | failed
MSSEGRNHNWDYAAIGTPEDFLASWSASRGNLRRFFEDHAAAPINDAAQRQAGEAAATQAVAAIYGMELNEFNAGVDAVAGAIESAGAIHVSIPDPDVPQDVGAAAFFDVDNTLIQGSSLIVFAQGLFRKKFFTIKEILPVVWKQVKFKLTGSENAEDVSRGREQALEFIKGRPVQELVDLCEEIVDQRMADKMWPGTKQLADMHIAAGHQVWLVSATPVQLAQILAQRLGFTGAIGTVAEAKDGVFTGRLVGDILHGPGKRHAVAALASIEQLDLTRCTAYSDSINDLPMLSMVGTAVAVNPDSKLRKEAETRGWDVRDFRSIRKATREYGIPALVTAAFSVAGWRLRRRWRKQ | failed
MKEGIELNTKKRIIGLDFARALAMFGMLLVNFMVITGAEGNGPPFLITLMSLFEGRASALFVILAGIGISLMTRSSVARNEKIKISNSRKIIWKRALFLFILGLLLYVMEWTGDILHYYGVYLFVAALLITVRKKALLFLSIIILLLAQSLQLTFNAFEGWGGPTPFINYVDFWTVNGFLRNLFFNGYHPFSHRFSFFLIGMIIGRLDLHNKKIRDRLLLLGITFTILIELLSKGLTYYFIPHIGKAAATFLFNTGPVLPNVLYILSATGSAIAILILCLYITEKYENNWFVTSIIQTGQLTLTHYVSHVFIGIGTLILFNRMEHQTLLFVLLFATVFFIFSILFSVLWRKKFSRGPIEWIMRKLAS | not failed
MTLGSQHSPLFALVQETLRKRILSGAYAQGERLVEGDLAEEMGVSRIPVREALRALAAAGLVRIEPRRGASVASLSPEHARDIVEVRATLEALNARLAAQRRNPQQVADMDRAIRDGAHACERGDTAALVEQNRHFHELLGGVSTNAVLQDLMRSLRDRTALLFARNSVTRAADILDEHAGILQAVTAGDADLASLLAARHVHNAAQWYFERPVDRKAVAADTD | failed
